In US7192735:
“And” between values parts separate entries of the source, which are not always exact repeats. Equal values may be shown once.

Tests used:
[1] = tested on: Streptomycete ACP involved in oxytetracycline polyketide antibiotic biosynthesis (apo-form)
[2] = target: EntF (E. coli enterobactin synthetase component), apo form (UniProt P11454)
[3] = target: E. coli fatty acid synthase apo-acyl carrier protein (apo-ACP) (UniProt P0A6A8)
[4] = tested on: Lactobacillus casei D-Alanyl carrier protein (apo-Dcp)
[5] = tested on: Streptomycete ACP involved in tetracenomycin polyketide antibiotic biosynthesis (apo-form)
[6] = tested on: Streptomycete ACP involved in granaticin polyketide antibiotic biosynthesis (apo-form)
[7] = tested on: Rhizobial NodF (wild-type)
[8] = tested on: Streptomycete ACP involved in frenolicin polyketide antibiotic biosynthesis (apo-form)
[9] = target: His6-SrfB1 (N-terminal hexa-histidine-tagged SrfB1 valine-activating domain of surfactin synthetase) (Bacillus) (UniProt Q04747); test: cell-based or functional assay
[10] = target: T1, His6-SrfB1 (N-terminal hexa-histidine-tagged SrfB1 valine-activating domain of surfactin synthetase) (UniProt Q04747)
T1 sequence: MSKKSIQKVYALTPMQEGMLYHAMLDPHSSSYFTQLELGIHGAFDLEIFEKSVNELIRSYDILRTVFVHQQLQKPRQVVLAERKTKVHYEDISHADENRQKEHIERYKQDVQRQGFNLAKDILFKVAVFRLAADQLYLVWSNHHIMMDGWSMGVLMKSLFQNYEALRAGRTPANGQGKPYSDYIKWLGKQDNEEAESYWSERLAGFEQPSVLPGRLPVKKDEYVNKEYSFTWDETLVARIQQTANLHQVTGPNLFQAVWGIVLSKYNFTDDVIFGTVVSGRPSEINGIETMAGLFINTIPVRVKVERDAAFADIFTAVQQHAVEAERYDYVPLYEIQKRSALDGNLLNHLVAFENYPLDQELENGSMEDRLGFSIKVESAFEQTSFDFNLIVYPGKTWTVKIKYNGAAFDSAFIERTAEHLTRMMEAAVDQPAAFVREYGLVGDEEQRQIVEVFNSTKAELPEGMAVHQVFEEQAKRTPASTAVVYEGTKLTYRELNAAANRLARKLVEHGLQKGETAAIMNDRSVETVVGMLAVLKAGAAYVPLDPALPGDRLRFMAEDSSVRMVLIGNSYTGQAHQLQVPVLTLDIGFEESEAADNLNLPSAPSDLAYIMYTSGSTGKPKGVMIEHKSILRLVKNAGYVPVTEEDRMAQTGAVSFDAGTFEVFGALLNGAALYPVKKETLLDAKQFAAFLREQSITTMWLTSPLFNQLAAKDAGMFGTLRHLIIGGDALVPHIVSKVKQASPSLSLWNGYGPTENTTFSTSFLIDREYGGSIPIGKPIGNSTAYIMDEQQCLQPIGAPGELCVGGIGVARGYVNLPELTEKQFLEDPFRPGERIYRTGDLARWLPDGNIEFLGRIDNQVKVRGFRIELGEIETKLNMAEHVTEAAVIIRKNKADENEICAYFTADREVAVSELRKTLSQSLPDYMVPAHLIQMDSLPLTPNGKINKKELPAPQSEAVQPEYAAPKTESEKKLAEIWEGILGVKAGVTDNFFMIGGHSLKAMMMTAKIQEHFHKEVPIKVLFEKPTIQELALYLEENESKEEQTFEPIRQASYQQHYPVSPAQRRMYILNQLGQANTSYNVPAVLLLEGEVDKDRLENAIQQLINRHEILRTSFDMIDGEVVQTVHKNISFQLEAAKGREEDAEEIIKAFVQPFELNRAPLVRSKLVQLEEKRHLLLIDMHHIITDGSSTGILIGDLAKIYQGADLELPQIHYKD

[11] = tested on: His6-peptidyl carrier protein (PCP domain of TycA, hexa-histidine tagged)

Chain of EntF (E. coli enterobactin synthetase component), apo form (P11454 whole entry): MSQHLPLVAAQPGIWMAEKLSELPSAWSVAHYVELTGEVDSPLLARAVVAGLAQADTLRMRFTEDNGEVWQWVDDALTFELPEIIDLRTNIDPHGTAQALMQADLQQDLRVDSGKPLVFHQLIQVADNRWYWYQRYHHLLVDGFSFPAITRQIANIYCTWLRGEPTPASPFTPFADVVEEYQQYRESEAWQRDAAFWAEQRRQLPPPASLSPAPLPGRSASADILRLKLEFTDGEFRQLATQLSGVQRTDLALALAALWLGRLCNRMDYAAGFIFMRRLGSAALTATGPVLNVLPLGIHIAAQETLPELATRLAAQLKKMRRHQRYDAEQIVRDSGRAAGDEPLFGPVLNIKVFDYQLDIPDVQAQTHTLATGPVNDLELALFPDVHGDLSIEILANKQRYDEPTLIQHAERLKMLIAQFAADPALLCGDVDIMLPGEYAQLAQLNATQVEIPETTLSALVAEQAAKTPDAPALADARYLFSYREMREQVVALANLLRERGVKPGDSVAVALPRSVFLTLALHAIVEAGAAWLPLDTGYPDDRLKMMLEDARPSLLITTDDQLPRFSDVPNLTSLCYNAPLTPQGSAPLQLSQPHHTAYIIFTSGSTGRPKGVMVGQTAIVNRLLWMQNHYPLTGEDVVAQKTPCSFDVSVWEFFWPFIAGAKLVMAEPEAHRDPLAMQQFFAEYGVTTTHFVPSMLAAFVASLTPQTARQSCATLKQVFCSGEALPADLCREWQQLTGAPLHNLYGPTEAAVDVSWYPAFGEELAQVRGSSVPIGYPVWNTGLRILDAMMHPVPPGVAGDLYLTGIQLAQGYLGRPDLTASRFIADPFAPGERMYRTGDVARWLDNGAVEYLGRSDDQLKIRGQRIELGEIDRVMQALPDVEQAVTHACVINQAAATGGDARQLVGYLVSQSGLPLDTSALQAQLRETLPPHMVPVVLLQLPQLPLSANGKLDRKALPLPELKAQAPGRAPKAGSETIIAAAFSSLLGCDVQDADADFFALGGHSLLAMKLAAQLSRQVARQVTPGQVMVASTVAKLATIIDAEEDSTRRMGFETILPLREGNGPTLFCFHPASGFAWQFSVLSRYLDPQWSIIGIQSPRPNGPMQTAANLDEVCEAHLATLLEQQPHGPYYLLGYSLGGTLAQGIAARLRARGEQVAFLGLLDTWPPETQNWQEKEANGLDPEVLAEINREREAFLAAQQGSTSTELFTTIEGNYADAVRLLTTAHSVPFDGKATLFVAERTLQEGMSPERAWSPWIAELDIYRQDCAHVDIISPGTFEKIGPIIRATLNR
Chain of E. coli fatty acid synthase apo-acyl carrier protein (apo-ACP) (P0A6A8 2-78): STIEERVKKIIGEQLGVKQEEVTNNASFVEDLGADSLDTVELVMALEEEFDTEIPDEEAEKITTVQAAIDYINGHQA

## Escherichia coli holo-acyl carrier protein synthase (ACPS)
[1]
  phosphopantetheinylation: E. coli ACPS modifies the apo-form of Streptomycete ACPs involved in frenolicin, granaticin, oxytetracycline, and tetracenomycin polyketide antibiotic biosynthesis
[2]
  time course of incorporation of radiolabel into EntF: EntF undergoes almost no modification in the presence of 15-fold higher concentrations of ACPS and o195
ACP-NodF chimera
  [3H]phosphopantetheine incorporated (+ ACPS): 122 000 dpm
[3]
  % conversion: 46% conversion
  Km value for apo-ACP: we were able to assign an upper limit of ˜1 µM to the Km value for apo-ACP
  [3H]phosphopantetheine incorporated (+ ACPS): 1 320 000 dpm
  apparent kcat: An apparent kcat value of about 10 min^-1 was measured at saturating CoA and 50 µM apo-ACP
  radioactivity incorporated into the protein fraction (ACP + ACPS): 2.13 × 10^6 (±.65%) and 2.20 × 10^6 (±.64%) and 2.21 × 10^6 (±.63%)
  time course of holo-ACP formation: almost exclusive modification of apo-ACP by ACPS
[4]
  [^3H] holo-Dcp formed versus apo-Dcp: the amount of holo-Dcp formed increases linearly with the amount of apo-Dcp in the reaction
  radioactivity incorporated into the protein fraction (Dcp + ACPS): 0.98 × 10^6 (±0.95%) and 1.04 × 10^6 (±0.93%) and 1.00 × 10^6 (±0.77%)
[5]
  phosphopantetheinylation: E. coli ACPS modifies the apo-form of Streptomycete ACPs involved in frenolicin, granaticin, oxytetracycline, and tetracenomycin polyketide antibiotic biosynthesis
[6]
  phosphopantetheinylation: E. coli ACPS modifies the apo-form of Streptomycete ACPs involved in frenolicin, granaticin, oxytetracycline, and tetracenomycin polyketide antibiotic biosynthesis
[7]
  % conversion: 47% conversion
  [3H]phosphopantetheine incorporated (+ ACPS): 236 000 dpm
[8]
  phosphopantetheinylation: E. coli ACPS modifies the apo-form of Streptomycete ACPs involved in frenolicin, granaticin, oxytetracycline, and tetracenomycin polyketide antibiotic biosynthesis

## Sfp (B. subtilis phosphopantetheinyl transferase) (enzyme)
[9]
  level of [^14C]-L-valine-holo-SrfB1 covalent complex formed: 14 fold

## Sfp (B. subtilis phosphopantetheinyl transferase)
[3]
  phosphopantetheinylation: Sfp efficiently catalyzes modification of all three substrates
[10]
  incorporation of [3H]-4'-Ppant: Sfp is capable of phosphopantetheinylating an SfrB1 fragment
[11]
  [3H]-4'-Ppant incorporated versus substrate concentration: Sfp is capable of phosphopantetheinylating a substrate, such as PCP, in a wide range of concentrations
  phosphopantetheinylation: Sfp efficiently catalyzes modification of all three substrates

## EntD (E. coli), recombinant from pET28b-entD
[2]
  incorporation of [3H]-4'-Ppant: EntD is capable of phosphopantetheinylating an EntF fragment
  time course of incorporation of radiolabel into EntF: EntF is modified effectively by EntD (100 nM)
